Laboratory results published in patent US20160326264A1 (SORRENTO THERAPEUTICS, published 2016).
Where “and” joins values, the source holds several entries; their conditions need not be identical. Equal entries are not always repeated.

Tests used:
[1] = target: T1, endogenous human PSMA (prostate-specific membrane antigen) expressed on LNCaP human prostate cancer cells (human, UniProt Q04609 1-750); assay: flow cytometry on LNCaP cells
T1 construct: whole, on cells; also called PSMA-expressing LNCaP cells
Method: PSMA expressing LNCaP cells were harvested with enzyme-free Cell Dissociation Buffer (GIBCO) and transferred to V-Bottom 96 well-plates (50,000 cells/well). Cells were incubated on ice for 45 min with serial dilutions of anti-PSMA antibodies PSGB11, PSGB12, PSGC12, PSGD4, PSGD6 and PSA11 in FACS buffer (PBS+ 2% FBS)+NaN₃. […] After 1 wash in FACS buffer, a 1:1000 dilution of Phycoerythrin conjugated anti-Human IgG (γ-chain specific) was added and incubated for 30 min Following a final wash, fluorescence intensity was measured on an Intellicyt High Throughput Flow Cytometer (HTFC).
Data were analyzed using Graphpad Prism software and non-linear regression fit. Data points are shown as the median fluorescence intensity (MFI) of positively labeled cells +/−Standard Error. EC₅₀ values are reported as the concentration of antibody to achieve 50% of maximal PSMA antibodies binding to PSMA expressing cells.

[2] = target: T2, recombinant human PSMA/His (human, UniProt Q04609 44-750); assay: BLI (Octet), antibody amine-coupled to AR2G sensor, PSMA/His in solution, 1:1 model; FIG. 4, second antibody (PSGB11; printed as PSA11)
T2 construct: not shown: His tag
Method: (§1) Specifically, an amine Reactive Second-Generation (AR2G) sensor was coated with antibody (15 ug/ml in acetic buffer, pH5.0) using Sulfo-N-hydroxysuccinimide/N-Ethyl-N′-(3-dimethylaminopropyl)carbodiimide hydrochloride (Sulfo-NHS/EDC) coupling methodology. The sensors were quenched with 1M pH 8.5 ethanolamine Data was collected by moving sensors to serially diluted recombinant human PSMA/His (in PBS buffer) wells, then the data was dissociated by transferring the sensors to PBS wells. A 1:1 binding model was used to fit the data.

[3] = target: T1, endogenous human PSMA …; assay: cell-based or functional assay
[4] = target: T2, recombinant human PSMA/His; assay: Octet biolayer interferometry, antibody amine-coupled to AR2G sensor, recombinant human PSMA/His in solution at 2.15 to 68.8 nM, global 1:1 fit; column headed kdis(1/s) (same value in all 6 rows)
Method: as §1

[5] = target: T2, recombinant human PSMA/His; assay: Octet biolayer interferometry, antibody amine-coupled to AR2G sensor, recombinant human PSMA/His in solution at 2.15 to 68.8 nM, global 1:1 fit (same value in all 6 rows)
Method: as §1

T2 sequence (Q04609 44-750 limits assumed): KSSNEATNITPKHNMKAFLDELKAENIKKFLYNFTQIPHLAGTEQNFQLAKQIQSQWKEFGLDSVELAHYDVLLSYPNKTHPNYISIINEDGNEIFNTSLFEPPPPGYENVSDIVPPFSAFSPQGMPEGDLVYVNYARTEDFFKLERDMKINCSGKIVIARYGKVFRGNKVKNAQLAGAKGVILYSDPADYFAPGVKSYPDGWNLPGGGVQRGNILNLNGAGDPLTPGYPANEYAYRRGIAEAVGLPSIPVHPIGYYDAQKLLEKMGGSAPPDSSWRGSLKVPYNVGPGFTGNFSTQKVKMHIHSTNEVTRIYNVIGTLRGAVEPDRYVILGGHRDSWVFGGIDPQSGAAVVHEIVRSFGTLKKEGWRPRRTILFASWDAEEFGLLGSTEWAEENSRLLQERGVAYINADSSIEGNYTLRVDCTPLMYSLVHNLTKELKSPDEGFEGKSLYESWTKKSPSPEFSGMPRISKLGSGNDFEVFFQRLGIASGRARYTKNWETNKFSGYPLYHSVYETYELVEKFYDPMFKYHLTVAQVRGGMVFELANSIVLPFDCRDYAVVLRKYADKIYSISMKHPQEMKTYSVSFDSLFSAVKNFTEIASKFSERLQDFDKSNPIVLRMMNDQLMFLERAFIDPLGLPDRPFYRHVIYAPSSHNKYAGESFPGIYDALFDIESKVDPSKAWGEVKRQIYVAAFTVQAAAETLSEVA
T1 sequence (Q04609 whole entry): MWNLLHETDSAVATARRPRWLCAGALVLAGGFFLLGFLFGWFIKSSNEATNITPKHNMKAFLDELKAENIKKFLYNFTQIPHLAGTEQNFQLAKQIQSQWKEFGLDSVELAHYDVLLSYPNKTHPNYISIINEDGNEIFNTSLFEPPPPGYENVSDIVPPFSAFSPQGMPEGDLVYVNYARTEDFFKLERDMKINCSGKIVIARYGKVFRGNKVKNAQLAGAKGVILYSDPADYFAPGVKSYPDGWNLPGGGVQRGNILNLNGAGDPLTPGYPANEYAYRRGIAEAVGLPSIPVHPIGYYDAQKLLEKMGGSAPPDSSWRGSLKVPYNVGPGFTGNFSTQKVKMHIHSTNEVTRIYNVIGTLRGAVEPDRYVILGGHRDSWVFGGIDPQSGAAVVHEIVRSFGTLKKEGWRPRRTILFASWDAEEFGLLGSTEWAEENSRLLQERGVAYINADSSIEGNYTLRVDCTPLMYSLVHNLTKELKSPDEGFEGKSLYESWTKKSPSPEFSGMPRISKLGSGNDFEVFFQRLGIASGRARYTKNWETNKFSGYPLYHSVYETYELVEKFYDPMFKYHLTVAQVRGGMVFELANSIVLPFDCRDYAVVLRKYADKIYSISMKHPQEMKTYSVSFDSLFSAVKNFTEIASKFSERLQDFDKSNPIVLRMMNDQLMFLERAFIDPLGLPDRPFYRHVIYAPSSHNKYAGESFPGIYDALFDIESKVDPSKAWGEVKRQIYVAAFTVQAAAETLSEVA

B1: anti-PSMA antibody PSGB11 (antibody, V domains shown)
VH: QVQLVQSGGGLVQPGGSLRLSCAASGFTFSSYWMSWVRQAPGKGLEWVANIKQDGSEKYYVDSVKGRFTISRDNAKNSLYLQMNSLRAEDTAVYYCARVWDYYYDSSGDAFDIWGQGTMVTVSS
VL: EIVLTQSPSTLSASVGDRVTITCRASQSISSWLAWYQQKPGKAPRLLIYAASILQRGVPSRFSGSGSETDFTLTISSLQPEDLATYYCQETYSNLFTFGPGTKVDIK
notes: Fully human IgG
Which results are given for B1?
EC50 [1]: 1.98 nM and 1.83 nM; Kd [2]: ~0.68 nM; Cell killing, 2-hours-wash method (IC50, nM); antibody pre-complexed with Protein G-MMAF, LNCaP cells, Cell Titer Glo [3]: 1.6 nM; Cell killing, No wash method (IC50, nM); antibody pre-complexed with Protein G-MMAF, LNCaP cells, Cell Titer Glo [3]: 0.04 nM; koff [4]: 6.57e-05 s⁻¹; Kd [5]: 0.677 nM; kon [5]: 97000 M⁻¹ s⁻¹
